The values that follow are results of earlier work, collected in paper PMC6699087.

Usually Kd stands for a measure of binding affinity in units of concentration.

The target of the data set is Hsp90 (Homo sapiens) (UniProt P08238).
Chain of UniProt P08238 (P08238 2-724): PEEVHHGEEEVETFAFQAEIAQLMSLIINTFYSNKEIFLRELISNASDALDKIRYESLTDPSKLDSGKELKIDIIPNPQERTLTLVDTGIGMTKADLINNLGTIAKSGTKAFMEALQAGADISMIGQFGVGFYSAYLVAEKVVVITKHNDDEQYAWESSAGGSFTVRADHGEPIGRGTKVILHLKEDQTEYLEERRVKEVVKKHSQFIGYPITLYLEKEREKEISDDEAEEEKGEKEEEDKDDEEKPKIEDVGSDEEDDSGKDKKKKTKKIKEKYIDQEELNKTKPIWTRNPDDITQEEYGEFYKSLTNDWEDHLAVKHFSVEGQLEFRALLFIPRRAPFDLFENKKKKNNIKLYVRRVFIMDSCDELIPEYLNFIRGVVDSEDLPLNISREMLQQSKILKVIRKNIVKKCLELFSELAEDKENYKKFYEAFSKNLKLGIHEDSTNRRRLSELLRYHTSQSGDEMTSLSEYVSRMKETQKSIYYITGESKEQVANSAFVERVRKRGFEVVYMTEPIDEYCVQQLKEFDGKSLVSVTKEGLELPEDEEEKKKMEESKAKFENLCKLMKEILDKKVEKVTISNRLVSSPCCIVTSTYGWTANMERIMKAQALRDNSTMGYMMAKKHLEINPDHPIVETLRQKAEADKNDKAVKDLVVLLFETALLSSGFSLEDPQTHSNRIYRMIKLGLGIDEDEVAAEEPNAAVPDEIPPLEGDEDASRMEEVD

Regarding Aha1 (from UniProt O95433), the Kd was 500 nM.
